What all share (test): EMSA
For orientation: Mobility shift assays separate free from complexed probe on a gel.

In data set [1] the test system is ParB (wild type) (Pseudomonas aeruginosa (PAO1161?)). The note with it: EMSA: 5.6 pmol dsDNA with 10, 20, 30, 50 pmol His6-ParB, 37 °C, 15 min; buffer as in Kusiak et al. 2011 (not given); 10% native PAGE in TBE.
The test system of data set [2] is ParB L282A (Pseudomonas aeruginosa (PAO1161?)).
The test system of data set [3] is ParB L286A (Pseudomonas aeruginosa (PAO1161?)).
For data set [4], the system named is ParB V285A (Pseudomonas aeruginosa (PAO1161?)).

For parS2/3 (oligos #17/#18), the binding signal (fold affinity (reference)) in data set [1] was 1. For the same substance, the results for the binding signal (fold affinity vs wild-type ParB) in data set [2], in data set [3] and in data set [4] were 0.5, 2 and 0.5, respectively.

For the origin of these results see article PMC3542827.
